These results are taken from the supplement of paper PMC11780869.

This data set relates to Bacillus subtilis. As to the kind of experiment: cleaved RNA product abundance (RNA/gDNA barcode ratio) relative to median wild-type variant (ratio to wild type); higher = more accumulation of the downstream cleavage product. In a few lines: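 Cleaved product abundance was measured with barcoded reporter mRNAs (truncated aprE or tetM) carrying mutagenized RNase Y cleavage-site windows in the B. subtilis chromosome. Cultures in LB at 37°C grew from OD600 0.0003 to 0.3. Gel-selected cleaved RNA was reverse transcribed and barcode-sequenced with genomic DNA barcodes, and the RNA:gDNA barcode ratio per construct was scaled to the median construct bearing the unmutated site.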

Where [1] appears, read: experiment (reporter, strain, medium): exp 8a: truncated aprE reporter, strain BJT201 with 2% xylose (RNase J1 expressed), cleavage site: glnRA (positions -5 to +31 mutated).
Where [2] appears, read: experiment (reporter, strain, medium): exp 2b: truncated aprE reporter, strain BJT200, cleavage site: cggR-gapA (positions -7 to +36 mutated).
Where [3] appears, read: experiment (reporter, strain, medium): exp 4a: truncated aprE reporter, strain BJT201 with 2% xylose (RNase J1 expressed), cleavage site: cggR-gapA (positions -7 to +36 mutated).

For “CGACATGTCCCGCTTCTTTCATTAATCCGTTAGCAAATGTTTTGCTATATACATTTTCCTTTTAAGAGGAGGAAT”, the “cleaved RNA product abundance” value under setting [1] worked out at 0.6. Consider “ACAGACGAAGGAGCCGCAAAGAAGTTATTAAGGGATCAACAATCCCTCAATATAAATATCTCTCACTTATTTAAA”, for which the “cleaved RNA product abundance” value is, setting by setting: under setting [2], 1; under setting [3], 0.962. Consider “CGACATGTCCCGCTTCTTTCATTAATCCGTTAGCAACTGTTTTGCTATATACATTTAACTTTTAAGAGGAGGAAT”, for which the “cleaved RNA product abundance” value under setting [1] amounted to 1.24. For “CGACATGTCCCGCTTCTTTCATTAATCCGTTAGCAAATGTTTTTCTATATACATTTACCTTTTAAGAGGAGGAAT”, the “cleaved RNA product abundance” value under setting [1] stood at 0.753. On to “ACAGACGAAGGAGCCGCAACGAAGTTATTAAGGGATGAATAATCTCTCAATATAAATATCTCTCACTTATTTAAA”, for which the “cleaved RNA product abundance” value under setting [3] was determined as 0.684.

For the sequence “CGACATGTCCCGCTTCTTTCATTAGTCCGTTACCAACTGTTTTGCTATATACATTTACCTTTTAAGAGGAGGAAT”, the “cleaved RNA product abundance” value under setting [1] turned out to be 0.248.

In the case of “ACAGACGAAGGAGCCGCAAAGAAGTTATTAAGGGATGAATAATCCATCGATATAAATATCTCTCACTTATTTAAA”, the “cleaved RNA product abundance” value under setting [3] came out at 0.112. On the same count and under the same terms, next, “ACAGACGAAGGAGCCGCAAAGAAGTTATTAAGGGATGAATAATCCCTCAATATAAATATGACTCACTTATTTAAA”: 1; “ACAGACGAAGGAGCCGCAAAGAAGTTATTAAGGTATGAATAATCCCTCAGTATAAATATCTCTCACTTATTTAAA”: 0.1; “ACAGACGAAGGAGCCGCAAAGAAGTCATTAAGTGATGAATAATCCCTCAATATAAATATCTCTCACTTATTTAAA”: 0.0976. For the sequence “CGACATGTCCCGCTTCTTTCATTAATCCGTTAGCAACTGTTTTTCTATATACATTTACGTTTTAAGAGGAGGAAT”, the “cleaved RNA product abundance” value under setting [1] came out at 0.305. For the sequence “ACAGACGAAGGAGCCGCAAAGAAGTTATTAAGGGATGAATAATGCCTCAATATAAATATCTCTCACTTATTTAAA”, the “cleaved RNA product abundance” value was determined as 0.129 under setting [2]; 0.17 under setting [3]; 0.128 (experiment (reporter, strain, medium): exp 6: tetM reporter, strain 168, cleavage site: cggR-gapA (positions -7 to +36 mutated)). “ACAGACGAAGGAGCCGCAAAGAAGTTATTAAGGGATCAATTATCCCTCAATATAAATATCTCTCACTTATTTAAA”: the “cleaved RNA product abundance” value under setting [3] came out at 1.23.

“ACAGACGAAGGAGCCGCAAAGAAGTTATTAAGAGATGAATCATCCCTCAATATAAATATCTCTCACTTATTTAAA”: under setting [3], the “cleaved RNA product abundance” value amounted to 0.139. “ACAGACGAAGGAGCCGCAATGAAGTTATTAAGGGATGAATAATCACTCAATATAAATATCTCTCACTTATTTAAA”: the “cleaved RNA product abundance” value turned out to be 0.126 under setting [2] and 0.129 under setting [3].

In the case of “ACAGACGAAGGAGCCGCAAAGAAGTTATTAATGGATGAATAATCCCTCAACATAAATATCTCTCACTTATTTAAA”, the “cleaved RNA product abundance” value under setting [3] came to 0.101. As to “ACAGACGAAGGAGCCGCAAAGAAGTTATTAAGGGAAGAAAAATCCCTCAATATAAATATCTCTCACTTATTTAAA”, the “cleaved RNA product abundance” value was 0.684 under setting [2] and 0.436 under setting [3]. For the sequence “CGACATGTCCCGCTTCTTTCATTAATCCGTTATCAACTGTTTTACTATATACATTTACCTTTTAAGAGGAGGAAT”, the “cleaved RNA product abundance” value under setting [1] amounted to 0.335. In the case of “ACAGACGAAGGAGCCGCACAGAAGTTATTAAGGGATGAATAAACCCTCAATATAAATATCTCTCACTTATTTAAA”, the “cleaved RNA product abundance” value runs as follows: under setting [2], 0.294; under setting [3], 0.34. “ACAGACGAAGGAGCCGCAAAGAAGTTATTAAGGGATGAAAAATCCCTCAGTATAAATATCTCTCACTTATTTAAA”: the “cleaved RNA product abundance” value under setting [3] is 0.224. Still for that read-out and setting: next, “ACAGACGAAGGAGCCGCAAAGAAGTTCTTAAGGTATGAATAATCCCTCAATATAAATATCTCTCACTTATTTAAA”: 0.145. As to “CGACATGTCCCGCTTCTTTCATTAATCCGTTAGTAACTGTTTTGCTATATACATTTACATTTTAAGAGGAGGAAT”, under setting [1], the “cleaved RNA product abundance” value turned out to be 0.433. With “ACAGACGAAGGAGCCGCAAAGAAGTTATTAAGGGAAGAATAATCCCTCAGTATAAATATCTCTCACTTATTTAAA”, the “cleaved RNA product abundance” value under setting [2] is 0.153 and the “cleaved RNA product abundance” value under setting [3] was determined as 0.29. In the case of “CGACATGTCCCGCTTCTTTCATTATTCCGTTAACAACTGTTTTGCTATATACTTTTACCTTTTAAGAGGAGGAAT”, the “cleaved RNA product abundance” value under setting [1] is 0.273. With “ACAGACGAAGGAGCCGCAAAGAAGTTATTAATGGATGAATAATCCCTCTATATAAATATCTCTCACTTATTTAAA”, the “cleaved RNA product abundance” value under setting [3] was 0.143. With “CGACATGTCCCGCTTCTTTCATTAATCAGTTAGCAACTGTTTTGCTATATACATTTACCGTTTAAGAGGAGGAAT”, the “cleaved RNA product abundance” value under setting [1] amounted to 0.649. Regarding “ACAGACGAAGGAGCCGCAAATGAGTTATTAAGGGATGAATAATCCCTCAATATAAATATCTCTCACTTATTTAAA”, the “cleaved RNA product abundance” value under setting [3] was 1.15. Turning to “ACAGACGAAGGAGCCGCAAAGAAGTTATGAAGGCATGAATAATCCCTCAATATAAATATCTCTCACTTATTTAAA”, the “cleaved RNA product abundance” value by setting is: under setting [2], 0.108; under setting [3], 0.116. With “ACAGACGAAGGAGCCGCAAAGCAGTTATTAAGGGATGAATAACCCCTCAATATAAATATCTCTCACTTATTTAAA”, the “cleaved RNA product abundance” value under setting [3] turned out to be 0.275. Same read-out and setting: next, “ACAGACGAAGGAGCCGCAAGGAAGTTATTAAGGCATGAATAATCCCTCAATATAAATATCTCTCACTTATTTAAA”: 0.148. As for “ACAGACGAAGGAGCCGCAAAGAAGTTATTAACGGCTGAATAATCCCTCAATATAAATATCTCTCACTTATTTAAA”, the “cleaved RNA product abundance” value by setting is: under setting [2], 0.0646; under setting [3], 0.0788. In the case of “ACAGACGAAGGAGCCGCAAATAAGTTATTAAGGGATGAATAATCCGTCAATATAAATATCTCTCACTTATTTAAA”, the “cleaved RNA product abundance” value under setting [3] came to 0.299. For the sequence “CGACATGTCCCGCTTCTTTCATTAATCCGTTAGCAACTGTTTCGCTTTATACATTTACCTTTTAAGAGGAGGAAT”, the “cleaved RNA product abundance” value under setting [1] came to 0.267. As for “ACAGACGAAGGAGCCGCAAAGAAGTAATTAAGGGATGAATAATCCCTCAATATAAACATCTCTCACTTATTTAAA”, the “cleaved RNA product abundance” value under setting [3] came to 0.264.

As to “CGACATGTCCCGCTTCTTTCATTAATCCGTTAGGAACTGTTTAGCTATATACATTTACCTTTTAAGAGGAGGAAT”, the “cleaved RNA product abundance” value under setting [1] came out at 0.327. For “ACAGACGAAGGAGCCGCAAAGAAGTTATTAAGGTATGAATAATCCCTCAAGATAAATATCTCTCACTTATTTAAA”, the “cleaved RNA product abundance” value under setting [2] came to 0.111 and the “cleaved RNA product abundance” value under setting [3] came out at 0.151. For the sequence “CGACATGTCCCGCTTCTTTCATTAATCCGTTATCAACTGATTTGCTATATACATTTACCTTTTAAGAGGAGGAAT”, the “cleaved RNA product abundance” value under setting [1] was 0.286. With “ACAGACGAAGGAGCCGCAAAGAAGATATTAAGGGATGAATAATCCCCCAATATAAATATCTCTCACTTATTTAAA”, under setting [3], the “cleaved RNA product abundance” value stood at 0.32. Take “ACAGACGAAGGAGCCGCAAAGAAGTTATTAAGGGATGTATAATTCCTCAATATAAATATCTCTCACTTATTTAAA”: the “cleaved RNA product abundance” value under setting [3] was determined as 0.576. For “ACAGACGAAGGAGCCGCAAAGAAGTTATTAAAGGATGAATAATCCCTCAATATAAATGTCTCTCACTTATTTAAA”, the “cleaved RNA product abundance” value came to 0.136 under setting [2] and 0.155 under setting [3]. “CGACATGTCCCGCTTCTTTCATTAATCCGTTACCAACTCTTTTGCTATATACATTTACCTTTTAAGAGGAGGAAT”: the “cleaved RNA product abundance” value under setting [1] was determined as 0.128. On the same count and under the same terms, next, “CGACATGTCCCGCTTCTTTCATTAATCCGTTACCAACTGTTTTGCTATATACCTTTACCTTTTAAGAGGAGGAAT”: 0.153.
